In paper PMC9482650, “Quantitative fragmentomics allow affinity mapping of interactomes” (Nature Communications, 2022):

T1: LIN7C, Q9NUP9
T1 sequence (Q9NUP9 88-185, limits assumed, looked up): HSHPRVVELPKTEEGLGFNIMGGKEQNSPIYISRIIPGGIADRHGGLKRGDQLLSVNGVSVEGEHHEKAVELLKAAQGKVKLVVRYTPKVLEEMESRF

T2: DVL3, Q92997
T2 sequence (Q92997 244-331, limits assumed, looked up): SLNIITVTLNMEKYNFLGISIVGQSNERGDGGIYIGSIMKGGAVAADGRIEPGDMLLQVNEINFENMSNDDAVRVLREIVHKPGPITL

T3: PDZD2_2, O15018
T3 sequence (O15018 329-429, limits assumed, looked up): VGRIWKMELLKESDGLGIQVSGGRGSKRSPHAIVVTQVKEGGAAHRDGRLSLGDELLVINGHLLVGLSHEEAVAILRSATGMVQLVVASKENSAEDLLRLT

T4: APBA1_2, Q02410
T4 sequence (Q02410 742-832, limits assumed, looked up): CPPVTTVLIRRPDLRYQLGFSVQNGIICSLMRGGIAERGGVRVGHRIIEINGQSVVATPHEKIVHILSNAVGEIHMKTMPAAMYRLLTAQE

T5: NHERF3_4, Q5T2W1
T5 sequence (Q5T2W1 373-468, limits assumed, looked up): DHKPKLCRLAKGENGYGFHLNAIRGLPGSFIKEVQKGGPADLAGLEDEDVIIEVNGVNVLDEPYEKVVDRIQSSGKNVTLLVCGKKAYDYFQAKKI

T6: LNX2_3, Q8N448
T6 sequence (Q8N448 463-564, limits assumed, looked up): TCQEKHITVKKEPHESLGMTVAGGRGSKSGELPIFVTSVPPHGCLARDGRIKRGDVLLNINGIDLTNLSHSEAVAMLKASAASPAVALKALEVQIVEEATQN

T7: GRIP1_5, Q9Y3R0
T7 sequence (Q9Y3R0 568-668, limits assumed, looked up): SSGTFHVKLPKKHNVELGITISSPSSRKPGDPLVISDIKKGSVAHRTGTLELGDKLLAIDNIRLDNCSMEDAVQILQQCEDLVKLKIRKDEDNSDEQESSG

T8: MPDZ_12, O75970
T8 sequence (O75970 1857-1958, limits assumed, looked up): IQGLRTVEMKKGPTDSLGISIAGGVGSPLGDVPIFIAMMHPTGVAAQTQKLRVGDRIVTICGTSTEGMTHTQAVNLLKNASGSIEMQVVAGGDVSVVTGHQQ

T9: SNTG1, Q9NSN8
T9 sequence (Q9NSN8 52-150, limits assumed, looked up): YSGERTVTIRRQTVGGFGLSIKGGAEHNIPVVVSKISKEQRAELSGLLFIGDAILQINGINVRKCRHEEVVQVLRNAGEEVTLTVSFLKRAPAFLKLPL

T10: APBA1_1, Q02410
T10 sequence (Q02410 651-752, limits assumed, looked up): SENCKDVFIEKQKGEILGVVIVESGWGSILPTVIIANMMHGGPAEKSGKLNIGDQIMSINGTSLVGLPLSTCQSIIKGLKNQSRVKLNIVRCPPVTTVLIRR

T11: SNTG2, Q9NY99
T11 sequence (Q9NY99 68-166, limits assumed, looked up): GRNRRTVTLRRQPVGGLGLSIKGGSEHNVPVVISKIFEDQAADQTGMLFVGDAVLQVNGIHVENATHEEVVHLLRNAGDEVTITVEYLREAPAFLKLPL


What was measured:
Experiment in all cases: holdup assay
Parameters in all cases: key: below the threshold = too weak to quantify, mostly under pKd 3.1 to 4
Settings in all cases: plain residues with an end cap or a label only (N-terminal biotin on a linker: ado-ado)
FRMPD2_1, Q68DX3 = biological target: FRMPD2_1, Q68DX3
PTPN3, P26045 = biological target: PTPN3, P26045
LIN7C, Q9NUP9 = biological target: T1, LIN7C, Q9NUP9
GRIP2_4, Q9C0E4 = biological target: GRIP2_4, Q9C0E4
DVL3, Q92997 = biological target: T2, DVL3, Q92997
PDZD2_2, O15018 = biological target: T3, PDZD2_2, O15018
Inadl_10, Q8NI35 = biological target: Inadl_10, Q8NI35
DLG4_3, P78352 = biological target: DLG4_3, P78352
APBA1_2, Q02410 = biological target: T4, APBA1_2, Q02410
NHERF4_4, Q86UT5 = biological target: NHERF4_4, Q86UT5
NHERF3_4, Q5T2W1 = biological target: T5, NHERF3_4, Q5T2W1
LNX2_3, Q8N448 = biological target: T6, LNX2_3, Q8N448
GRIP1_5, Q9Y3R0 = biological target: T7, GRIP1_5, Q9Y3R0
GIPC2, Q8TF65 = biological target: GIPC2, Q8TF65
DLG1_1, Q12959 = biological target: DLG1_1, Q12959
GORASP2, Q9H8Y8 = biological target: GORASP2, Q9H8Y8
MAST2, Q6P0Q8 = biological target: MAST2, Q6P0Q8
MPDZ_12, O75970 = biological target: T8, MPDZ_12, O75970
IL16_3, Q14005 = biological target: IL16_3, Q14005
SNTG1, Q9NSN8 = biological target: T9, SNTG1, Q9NSN8
GRIP2_7, Q9C0E4 = biological target: GRIP2_7, Q9C0E4
Inadl_8, Q8NI35 = biological target: Inadl_8, Q8NI35
LIMK2, P53671 = biological target: LIMK2, P53671
APBA1_1, Q02410 = biological target: T10, APBA1_1, Q02410
SNTG2, Q9NY99 = biological target: T11, SNTG2, Q9NY99
DLG4_1, P78352 = biological target: DLG4_1, P78352
SCRIB_2, Q14160 = biological target: SCRIB_2, Q14160
Sequence of SCRIB_2, Q14160 (Q14160 857-960): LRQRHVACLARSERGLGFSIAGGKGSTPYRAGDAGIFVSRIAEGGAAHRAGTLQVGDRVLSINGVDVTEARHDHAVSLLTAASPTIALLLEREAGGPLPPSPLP

Sequence of DLG4_3, P78352 (P78352 306-403): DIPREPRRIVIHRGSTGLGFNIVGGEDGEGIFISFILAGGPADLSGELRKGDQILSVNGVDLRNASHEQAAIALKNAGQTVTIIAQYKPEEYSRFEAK
Sequence of GRIP2_7, Q9C0E4 (Q9C0E4 934-1023): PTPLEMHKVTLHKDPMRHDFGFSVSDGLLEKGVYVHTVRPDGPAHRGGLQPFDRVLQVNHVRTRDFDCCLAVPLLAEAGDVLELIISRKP
Sequence of NHERF4_4, Q86UT5 (Q86UT5 464-550): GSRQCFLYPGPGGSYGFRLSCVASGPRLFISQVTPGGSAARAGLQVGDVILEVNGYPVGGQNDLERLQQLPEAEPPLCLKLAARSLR
Sequence of DLG4_1, P78352 (P78352 62-152): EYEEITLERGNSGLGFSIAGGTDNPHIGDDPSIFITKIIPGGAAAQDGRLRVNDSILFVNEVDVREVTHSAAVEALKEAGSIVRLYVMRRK
Sequence of GIPC2, Q8TF65 (Q8TF65 112-203): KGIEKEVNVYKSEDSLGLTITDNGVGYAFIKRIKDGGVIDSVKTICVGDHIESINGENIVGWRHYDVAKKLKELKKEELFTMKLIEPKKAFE
Sequence of GRIP2_4, Q9C0E4 (Q9C0E4 446-548): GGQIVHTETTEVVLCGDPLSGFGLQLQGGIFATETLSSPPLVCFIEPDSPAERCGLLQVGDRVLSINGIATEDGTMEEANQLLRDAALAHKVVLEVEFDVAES
Sequence of PTPN3, P26045 (P26045 505-587): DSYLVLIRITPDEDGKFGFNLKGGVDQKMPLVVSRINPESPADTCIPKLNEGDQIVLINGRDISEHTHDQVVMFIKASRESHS
Sequence of Inadl_10, Q8NI35 (Q8NI35 1673-1763): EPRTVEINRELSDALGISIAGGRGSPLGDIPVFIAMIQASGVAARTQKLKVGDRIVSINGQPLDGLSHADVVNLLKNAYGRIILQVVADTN
Sequence of FRMPD2_1, Q68DX3 (Q68DX3 770-861): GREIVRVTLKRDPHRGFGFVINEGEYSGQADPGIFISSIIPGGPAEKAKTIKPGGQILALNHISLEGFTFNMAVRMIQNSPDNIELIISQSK
Sequence of MAST2, Q6P0Q8 (Q6P0Q8 1099-1202): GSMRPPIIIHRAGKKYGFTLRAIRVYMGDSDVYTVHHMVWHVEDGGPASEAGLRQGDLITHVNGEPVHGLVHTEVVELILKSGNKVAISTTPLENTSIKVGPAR
Sequence of Inadl_8, Q8NI35 (Q8NI35 1425-1530): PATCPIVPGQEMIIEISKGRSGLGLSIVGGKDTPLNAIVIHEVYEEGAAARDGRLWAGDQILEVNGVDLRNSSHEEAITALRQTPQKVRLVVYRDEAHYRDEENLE
Sequence of LIMK2, P53671 (P53671 143-248): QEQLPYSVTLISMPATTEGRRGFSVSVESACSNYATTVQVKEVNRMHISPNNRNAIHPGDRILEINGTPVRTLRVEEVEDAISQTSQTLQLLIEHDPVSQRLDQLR
Sequence of IL16_3, Q14005 (Q14005 1107-1207): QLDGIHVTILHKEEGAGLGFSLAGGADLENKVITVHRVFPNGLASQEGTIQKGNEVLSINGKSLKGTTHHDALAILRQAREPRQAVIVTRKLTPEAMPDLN

| pKd (FRMPD2_1, Q68DX3) | pKd (PTPN3, P26045) | pKd (LIN7C, Q9NUP9) | pKd (GRIP2_4, Q9C0E4) | pKd (DVL3, Q92997) | pKd (PDZD2_2, O15018) | pKd (Inadl_10, Q8NI35) | pKd (DLG4_3, P78352) | pKd (APBA1_2, Q02410) | pKd (NHERF4_4, Q86UT5) | pKd (NHERF3_4, Q5T2W1) | pKd (LNX2_3, Q8N448) | pKd (GRIP1_5, Q9Y3R0) | pKd (GIPC2, Q8TF65) | pKd (DLG1_1, Q12959) | pKd (GORASP2, Q9H8Y8) | pKd (MAST2, Q6P0Q8) | pKd (MPDZ_12, O75970) | pKd (IL16_3, Q14005) | pKd (SNTG1, Q9NSN8) | Binder | further results |
| --- | --- | --- | --- | --- | --- | --- | --- | --- | --- | --- | --- | --- | --- | --- | --- | --- | --- | --- | --- | --- | --- |
| 3.56 | below the threshold | below the threshold | below the threshold | below the threshold | 3.63 | below the threshold | below the threshold | 3.68 | below the threshold | 3.75 | below the threshold | 3.5 | below the threshold | below the threshold | 4.18 | 4.35 | 3.61 | below the threshold | 3.65 | NVYGIESVKI [GRIA2, P42262] | pKd (GRIP2_7, Q9C0E4): below the threshold; pKd (Inadl_8, Q8NI35): below the threshold; pKd (LIMK2, P53671): below the threshold; pKd (APBA1_1, Q02410): 3.52; pKd (SNTG2, Q9NY99): below the threshold; pKd (DLG4_1, P78352): below the threshold; pKd (SCRIB_2, Q14160): 3.49 |
| below the threshold | 4.13 | 4 | below the threshold | below the threshold | 4.23 | below the threshold | 3.86 | 3.74 | below the threshold | below the threshold | below the threshold | below the threshold | below the threshold | 4.24 | 3.55 | 5.5 | below the threshold | below the threshold | below the threshold | PSHPRLQTHV [KIRREL2, Q6UWL6] | pKd (GRIP2_7, Q9C0E4): below the threshold; pKd (Inadl_8, Q8NI35): 3.61; pKd (LIMK2, P53671): below the threshold; pKd (APBA1_1, Q02410): below the threshold; pKd (SNTG2, Q9NY99): below the threshold; pKd (DLG4_1, P78352): 4.06; pKd (SCRIB_2, Q14160): 3.76 |
| 3.54 | 5 | below the threshold | below the threshold | below the threshold | 3.57 | 3.66 | 3.87 | 4.1 | 3.99 | 5.4 | 3.49 | below the threshold | below the threshold | 4.05 | below the threshold | 5.88 | below the threshold | below the threshold | 3.68 | GIKKITSTAL [RPS6KA3, P51812] | pKd (GRIP2_7, Q9C0E4): below the threshold; pKd (Inadl_8, Q8NI35): 3.62; pKd (LIMK2, P53671): below the threshold; pKd (APBA1_1, Q02410): below the threshold; pKd (SNTG2, Q9NY99): 4.23; pKd (DLG4_1, P78352): 3.76; pKd (SCRIB_2, Q14160): 3.49 |
| below the threshold | 4.09 | below the threshold | below the threshold | below the threshold | below the threshold | below the threshold | below the threshold | below the threshold | below the threshold | 4.41 | below the threshold | below the threshold | below the threshold | below the threshold | below the threshold | 4.89 | below the threshold | below the threshold | below the threshold | TISFTQTSQF [SLC1A1, P43005] | pKd (GRIP2_7, Q9C0E4): below the threshold; pKd (Inadl_8, Q8NI35): below the threshold; pKd (LIMK2, P53671): below the threshold; pKd (APBA1_1, Q02410): below the threshold; pKd (SNTG2, Q9NY99): below the threshold; pKd (DLG4_1, P78352): below the threshold; pKd (SCRIB_2, Q14160): below the threshold |
| below the threshold | below the threshold | below the threshold | below the threshold | 3.59 | 3.71 | below the threshold | 3.5 | below the threshold | 4.58 | 3.66 | below the threshold | below the threshold | below the threshold | below the threshold | 4.46 | 4.68 | below the threshold | below the threshold | below the threshold | DFLSTFHIRI [CIB2, O75838] | pKd (GRIP2_7, Q9C0E4): 4.04; pKd (Inadl_8, Q8NI35): below the threshold; pKd (LIMK2, P53671): below the threshold; pKd (APBA1_1, Q02410): 4.08; pKd (SNTG2, Q9NY99): 3.62; pKd (DLG4_1, P78352): below the threshold; pKd (SCRIB_2, Q14160): below the threshold |
